Patent publication US20180030151A1
Where two headings read alike, the source gives them in different places.

Assays:
[1] = molecular target: recombinant human TFPI (tissue factor pathway inhibitor) (human) (UniProt P10646)
[2] = molecular target: recombinant human TFPI (tissue factor pathway inhibitor) (human) (UniProt P10646); assay: cell-based or functional assay
[3] = molecular target: recombinant human TFPI (tissue factor pathway inhibitor) (human) (UniProt P10646); assay: cell-based or functional assay; remark: listed apart in the source
[4] = molecular target: recombinant human TFPI (tissue factor pathway inhibitor) (human) (UniProt P10646); assay: cell-based or functional assay; remark: listed apart in the source
[5] = molecular target: recombinant human TFPI (tissue factor pathway inhibitor) (human) (UniProt P10646); assay: cell-based or functional assay; remark: listed apart in the source
[6] = molecular target: recombinant human TFPI (tissue factor pathway inhibitor) (human) (UniProt P10646); assay: cell-based or functional assay; remark: listed apart in the source
[7] = molecular target: recombinant human TFPI (tissue factor pathway inhibitor) (human) (UniProt P10646); assay: cell-based or functional assay; remark: listed apart in the source
[8] = molecular target: recombinant human TFPI (tissue factor pathway inhibitor) (human) (UniProt P10646); assay: cell-based or functional assay; remark: listed apart in the source

FXa assay OD, 20 nM Ab, 10 nM TFPI [1]: 0.724
% of Normalized, TF/FVIIa/FX complex assay (FX 5 nM), Ab 1.56 nM [2]: 5.3%
% of Normalized, TF/FVIIa/FX complex assay (FX 5 nM), Ab 3.13 nM [2]: 5.7%
% of Normalized, TF/FVIIa/FX complex assay (FX 5 nM), Ab 6.25 nM [2]: 6.1%
% of Normalized, TF/FVIIa/FX complex assay (FX 5 nM), Ab 12.5 nM [2]: 10.1%
% of Normalized, TF/FVIIa/FX complex assay (FX 5 nM), Ab 25 nM [2]: 42.5%
% of Normalized, TF/FVIIa/FX complex assay (FX 5 nM), Ab 50 nM [2]: 90.6%
% of Normalized, TF/FVIIa/FX complex assay (FX 5 nM), Ab 100 nM [2]: 99.4%
% of Normalized, TF/FVIIa/FX complex assay, Ab 1.56 nM [2]: 13.6%
% of Normalized, TF/FVIIa/FX complex assay, Ab 3.13 nM [2]: 15.7%
% of Normalized, TF/FVIIa/FX complex assay, Ab 6.25 nM [2]: 18.2%
% of Normalized, TF/FVIIa/FX complex assay, Ab 12.5 nM [2]: 23.7%
% of Normalized, TF/FVIIa/FX complex assay, Ab 25 nM [2]: 100%
% of Normalized, TF/FVIIa/FX complex assay, Ab 50 nM [2]: 101%
% of Normalized, TF/FVIIa/FX complex assay, Ab 100 nM [2]: 102%
A405, TF/FVIIa/FX complex assay (FX 5 nM), Ab 1.56 nM [2]: 0.043
A405, TF/FVIIa/FX complex assay (FX 5 nM), Ab 3.13 nM [2]: 0.047
A405, TF/FVIIa/FX complex assay (FX 5 nM), Ab 6.25 nM [2]: 0.05
A405, TF/FVIIa/FX complex assay (FX 5 nM), Ab 12.5 nM [2]: 0.082
A405, TF/FVIIa/FX complex assay (FX 5 nM), Ab 25 nM [2]: 0.344
A405, TF/FVIIa/FX complex assay (FX 5 nM), Ab 50 nM [2]: 0.733
A405, TF/FVIIa/FX complex assay (FX 5 nM), Ab 100 nM [2]: 0.805
A405, TF/FVIIa/FX complex assay, Ab 1.56 nM [2]: 0.125
A405, TF/FVIIa/FX complex assay, Ab 3.13 nM [2]: 0.145
A405, TF/FVIIa/FX complex assay, Ab 6.25 nM [2]: 0.168
A405, TF/FVIIa/FX complex assay, Ab 12.5 nM [2]: 0.218
A405, TF/FVIIa/FX complex assay, Ab 25 nM [2]: 0.918
A405, TF/FVIIa/FX complex assay, Ab 50 nM [2]: 0.929
A405, TF/FVIIa/FX complex assay, Ab 100 nM [2]: 0.937
A405, TF/FVIIa/FX complex assay, Ab 1.56 nM [3]: 0.151
A405, TF/FVIIa/FX complex assay, Ab 3.13 nM [3]: 0.171
A405, TF/FVIIa/FX complex assay, Ab 6.25 nM [3]: 0.18
A405, TF/FVIIa/FX complex assay, Ab 12.5 nM [3]: 0.233
A405, TF/FVIIa/FX complex assay, Ab 25 nM [3]: 0.955
A405, TF/FVIIa/FX complex assay, Ab 50 nM [3]: 0.951
A405, TF/FVIIa/FX complex assay, Ab 100 nM [3]: 0.966
% of Normalized, TF/FVIIa/FX complex assay, Ab 1.56 nM [4]: 15.8%
% of Normalized, TF/FVIIa/FX complex assay, Ab 3.13 nM [4]: 17.9%
% of Normalized, TF/FVIIa/FX complex assay, Ab 6.25 nM [4]: 18.8%
% of Normalized, TF/FVIIa/FX complex assay, Ab 12.5 nM [4]: 24.4%
% of Normalized, TF/FVIIa/FX complex assay, Ab 25 nM [4]: 100%
% of Normalized, TF/FVIIa/FX complex assay, Ab 50 nM [4]: 99.6%
% of Normalized, TF/FVIIa/FX complex assay, Ab 100 nM [4]: 101%
A405, TF/FVIIa/FX complex assay, Ab 1.56 nM [5]: 0.137
A405, TF/FVIIa/FX complex assay, Ab 3.13 nM [5]: 0.143
A405, TF/FVIIa/FX complex assay, Ab 6.25 nM [5]: 0.156
A405, TF/FVIIa/FX complex assay, Ab 12.5 nM [5]: 0.241
A405, TF/FVIIa/FX complex assay, Ab 25 nM [5]: 0.932
A405, TF/FVIIa/FX complex assay, Ab 50 nM [5]: 0.953
A405, TF/FVIIa/FX complex assay, Ab 100 nM [5]: 0.952
% of Normalized, TF/FVIIa/FX complex assay, Ab 1.56 nM [6]: 15%
% of Normalized, TF/FVIIa/FX complex assay, Ab 3.13 nM [6]: 15.6%
% of Normalized, TF/FVIIa/FX complex assay, Ab 6.25 nM [6]: 17%
% of Normalized, TF/FVIIa/FX complex assay, Ab 12.5 nM [6]: 26.3%
% of Normalized, TF/FVIIa/FX complex assay, Ab 25 nM [6]: 102%
% of Normalized, TF/FVIIa/FX complex assay, Ab 50 nM [6]: 104%
% of Normalized, TF/FVIIa/FX complex assay, Ab 100 nM [6]: 104%
A405, TF/FVIIa/FX complex assay, Ab 1.56 nM [7]: 0.044
A405, TF/FVIIa/FX complex assay, Ab 3.13 nM [7]: 0.046
A405, TF/FVIIa/FX complex assay, Ab 6.25 nM [7]: 0.062
A405, TF/FVIIa/FX complex assay, Ab 12.5 nM [7]: 0.105
A405, TF/FVIIa/FX complex assay, Ab 25 nM [7]: 0.462
A405, TF/FVIIa/FX complex assay, Ab 50 nM [7]: 0.73
A405, TF/FVIIa/FX complex assay, Ab 100 nM [7]: 0.852
% of Normalized, TF/FVIIa/FX complex assay, Ab 1.56 nM [8]: 5.2%
% of Normalized, TF/FVIIa/FX complex assay, Ab 3.13 nM [8]: 5.4%
% of Normalized, TF/FVIIa/FX complex assay, Ab 6.25 nM [8]: 7.3%
% of Normalized, TF/FVIIa/FX complex assay, Ab 12.5 nM [8]: 12.4%
% of Normalized, TF/FVIIa/FX complex assay, Ab 25 nM [8]: 54.4%
% of Normalized, TF/FVIIa/FX complex assay, Ab 50 nM [8]: 86.1%
% of Normalized, TF/FVIIa/FX complex assay, Ab 100 nM [8]: 100%
B1: mAb2021 (anti-TFPI Ab, Novo Nordisk) (antibody, from another filing, V domains shown)
VH: EVQLVESGGGLVKPGGSLRLSCAASGFTFSNYAMSWVRQTPEKRLEWVATISRSGSYSYFPDSVQGRFTISRDNAKNSLYLQMNSLRAEDTAVYYCARLGGYDEGDAMDSWGQGTTVTVSS
VL: DIVMTQTPLSLSVTPGQPASISCKSSQSLLESDGKTYLNWYLQKPGQSPQLLIYLVSILDSGVPDRFSGSGSGTDFTLKISRVEAEDVGVYYCLQATHFPQTFGGGTKVEIKR
